This experiment addresses human CD40 on primary human B cells or monocyte-derived dendritic cells (human) (UniProt P25942). Description: cell-based or functional assay.

Several values for one entry are separate records, joined by “and”; a condition that tells them apart may be missing. Equal values may be shown once.

Chain of human CD40 on primary human B cells or monocyte-derived dendritic cells (human) (P25942 21-277 H80K/K81H limits assumed): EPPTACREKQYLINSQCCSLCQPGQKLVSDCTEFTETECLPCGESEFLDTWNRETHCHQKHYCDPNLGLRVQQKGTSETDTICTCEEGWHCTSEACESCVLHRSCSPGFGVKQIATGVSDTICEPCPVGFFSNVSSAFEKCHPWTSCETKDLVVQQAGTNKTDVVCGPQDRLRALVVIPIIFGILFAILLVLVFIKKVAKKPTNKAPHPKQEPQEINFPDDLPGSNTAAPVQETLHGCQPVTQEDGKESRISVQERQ

On to “anti-CD40 monoclonal antibody corresponding to sequence 21.4.1 of U.S. Pat. No. 7,338,660 B2”, for which the EC50 [nM], % CD86, human B cells + FAP-CHO, w HSA was 0.88 nM and 0.3 nM; the EC50 [nM], % CD86, human B cells + FAP-CHO, w/o HSA is 1.9 nM and 0.51 nM; the EC50 [nM], MFI CD86, human B cells + FAP-CHO, w HSA is 0.51 nM and 2.05 nM; the EC50 [nM], MFI CD86, human B cells + FAP-CHO, w/o HSA was 1.13 nM and 4.73 nM. Moreover, the Efficacy [MFI at highest dose], MFI CD86, human B cells + FAP-CHO, w HSA is 1530 MFI and 1870 MFI; the Efficacy [MFI at highest dose], MFI CD86, human B cells + FAP-CHO, w/o HSA is 1340 MFI and 2060 MFI; the Efficacy [MFI at highest dose], MFI CD86, human B cells + WT-CHO (no FAP), w HSA is 1900 MFI and 1470 MFI; the Efficacy [MFI at highest dose], MFI CD86, human B cells + WT-CHO (no FAP), w/o HSA was 2050 MFI and 1390 MFI.

The record behind these values is patent US20240279290A1.
